For the assay, the target named is human CXC Chemokine Receptor 3 (CXCR3) (human) (UniProt P49682). The experiment in a line: cell-based or functional assay.
Sequence of UniProt P49682 (P49682 whole entry, form in doubt): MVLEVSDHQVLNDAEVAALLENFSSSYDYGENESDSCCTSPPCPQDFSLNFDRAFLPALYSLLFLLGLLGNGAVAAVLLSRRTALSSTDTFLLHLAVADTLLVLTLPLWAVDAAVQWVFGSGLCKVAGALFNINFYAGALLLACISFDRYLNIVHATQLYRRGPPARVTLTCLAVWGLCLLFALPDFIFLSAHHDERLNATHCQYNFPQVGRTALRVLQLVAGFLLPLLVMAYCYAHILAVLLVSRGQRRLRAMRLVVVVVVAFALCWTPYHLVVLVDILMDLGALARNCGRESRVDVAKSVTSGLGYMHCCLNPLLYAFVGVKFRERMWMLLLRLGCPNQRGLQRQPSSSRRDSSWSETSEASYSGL
In the case of “ENA78 (epithelial-derived neutrophil-activating peptide 78) (from UniProt P42830 37-114) (ligand)”, the [Ca2+]i changes in IP-10/MigR transfectants was more than 100 nM.

Substance “GCP-2 (granulocyte chemotactic protein-2) (from UniProt P80162 38-114) (ligand)” yielded a [Ca2+]i changes in IP-10/MigR transfectants of more than 100 nM.

The substance “GROα (from UniProt P09341 35-107) (ligand)” had a [Ca2+]i changes in IP-10/MigR transfectants of more than 100 nM. Then “I309 (from UniProt P22362 24-96) (ligand)”, with more than 100 nM; and “IL-8 (from UniProt P10145 28-99) (ligand)”, with more than 100 nM. Substance “MCP-1 (monocyte chemotactic protein-1) (from UniProt P13500 24-99) (ligand)” yielded a [Ca2+]i changes in IP-10/MigR transfectants of more than 100 nM.

In the case of “MCP-2 (from UniProt P80075 24-99) (ligand)”, the [Ca2+]i changes in IP-10/MigR transfectants is more than 100 nM.

Take “MCP-3 (from UniProt P80098 24-99) (ligand)”: the [Ca2+]i changes in IP-10/MigR transfectants was more than 100 nM. “MCP-4 (from UniProt Q99616 24-98) (ligand)”: the [Ca2+]i changes in IP-10/MigR transfectants was more than 100 nM. In turn, “MIP-1α (macrophage inflammatory protein-1α) (from UniProt P10147 24-92) (ligand)” returned a [Ca2+]i changes in IP-10/MigR transfectants of more than 100 nM.

“MIP-1β (from UniProt P13236 24-92) (ligand)” registered a [Ca2+]i changes in IP-10/MigR transfectants of more than 100 nM. “NAP-2 (neutrophil-activating protein-2) (from UniProt P02775 59-128) (ligand)” came in with a [Ca2+]i changes in IP-10/MigR transfectants of more than 100 nM. Next, “PF4 (platelet factor 4) (from UniProt P02776 32-101) (ligand)”: more than 100 nM. Consider “RANTES (regulated on activation, normal T cell expressed and secreted) (from UniProt P13501 24-91) (ligand)”, for which the [Ca2+]i changes in IP-10/MigR transfectants is more than 100 nM. Consider “eotaxin (from UniProt P51671 24-97) (ligand)”, for which the [Ca2+]i changes in IP-10/MigR transfectants is more than 100 nM. Regarding “lymphotactin (from UniProt P47992 22-114) (ligand)”, the [Ca2+]i changes in IP-10/MigR transfectants was more than 100 nM.

The values above are taken from patent EP0925358B1.
